Results as given in patent US20170037088A1 (published 2017).
Blank lines part the entries; values can stand above or below the molecule they belong to.

Key:
hGHR-Fc (human) = hGHR-Fc (human) (UniProt P10912); assay: ELISA
[1] = molecular target: AC299 (FIX-XTEN_AE864 with an XTEN release site specific for FXI) (UniProt P00740)
[2] = molecular target: AC296 (FIX-XTEN_AE864 that lacks an XTEN release site) (UniProt P00740)
[3] = molecular target: AC300 (FIX-XTEN_AE864 with an XTEN release site specific for thrombin) (UniProt P00740)
glucagon receptor = glucagon receptor (UniProt P47871 26-477, limits assumed); assay: cell-based or functional assay

Sequence of hGHR-Fc (human) (P10912 19-264): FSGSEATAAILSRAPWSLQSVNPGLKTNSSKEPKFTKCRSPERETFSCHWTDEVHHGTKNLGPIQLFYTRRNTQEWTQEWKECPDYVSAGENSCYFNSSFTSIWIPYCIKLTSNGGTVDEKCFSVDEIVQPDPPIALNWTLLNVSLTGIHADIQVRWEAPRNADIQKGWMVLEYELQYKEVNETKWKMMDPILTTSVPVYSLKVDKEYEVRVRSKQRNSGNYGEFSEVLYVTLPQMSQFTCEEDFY

EC50 (hGHR-Fc (human)): 16.2 nM
Molecule: AE912-hGH-AE144

Molecule: immobilized thrombin (Thrombin CleanCleave Kit, RECOM-T, Sigma)
Clotting activity (ng/ng), with thrombin [1]: 0.02 ng/ng | Clotting activity (ng/ng), with thrombin [2]: 0.01 ng/ng | Clotting activity (ng/ng), with thrombin [3]: 0.8 ng/ng

EC50, real-time calcium mobilization (FLIPR) (glucagon receptor): 72 nM
B1: glucagon-Y288 (other)
chain: HSQGTFTSDYSKYLDSRRAQDFVQWLMNTGEGSGEGSEGEGSEGSGEGEGSEGSGEGEGGSEGSEGEGGSEGSEGEGGSEGSEGEGSGEGSEGEGGSEGSEGEGSGEGSEGEGSEGGSEGEGGSEGSEGEGSGEGSEGEGGEGGSEGEGSEGSGEGEGSGEGSEGEGSEGSGEGEGSGEGSEGEGSEGSGEGEGSEGSGEGEGGSEGSEGEGSEGSGEGEGGEGSGEGEGSGEGSEGEGGGEGSEGEGSGEGGEGEGSEGGSEGEGGSEGGEGEGSEGSGEGEGSEGGSEGEGSEGGSEGEGSEGSGEGEGSEGSGE
